From patent US20230159619A1, “COMPOSITIONS AND METHODS FOR REGULATING IMMUNE SYSTEM ACTIVITY” (Olema Pharmaceuticals, Inc., priority 2017, published 2023)

Key:
Assay type in all cases: cell-based, human
[1] = system: NFAT-Luciferase reporter; assay: NFAT-Luciferase reporter assay with ZAP70dn(1-278) constructs (Example 10); conditions: Jurkat E6.1 cells, αTCR+αCD28, with or without endoxifen, compared to empty vector controls
Source text: (§1) To provide a means for assessing immune pathway activity, a construct containing a reporter gene, such as firefly luciferase (Luc), under the control of an NFAT response element can be used, as described, e.g., in Example 3. In the present Example, Jurkat E6.1 cells were transiently transfected with an NFAT-Luciferase reporter construct as well as one of (a) empty vector; (b) an expression construct encoding ZAP70dn(1-278); (c) an expression construct encoding ZAP70dn(1-278)-ER(T2); and (d) an expression construct encoding ZAP70dn(1-278)-ER(T12). Transient transfections were performed using LTX and PLUS transfection reagent (ThermoFisher Scientific) according to manufacturer's protocols.
A first set of transfected cells was treated in the absence or presence of 1:30 dilution of Immunocult CD3/CD28/CD2 tetrameric antibody mixture (StemCell Technologies, Canada), which stimulated T-cell activity. […] Luciferase activity (luminescence) was measured and reported as a percentage induction of NFAT-Luciferase.
A further set of transfected cells was treated in the absence or presence of 0.25 μg/ml C305 (αTCR, Sigma-Aldrich) plus 2 μg/ml αCD28.2 (Biolegend), which stimulated T-cell activity. […] Luciferase activity (luminescence) was measured and reported in relative light units (RLU).

[2] = system: NFAT-Luciferase reporter; assay: NFAT-Luciferase reporter assay with LCK(1-266) constructs (Example 11); conditions: Jurkat E6.1 cells, α-CD3 and α-CD28, with or without endoxifen, compared to empty vector controls
Source text: as §1, with “assessing T cell” for “assessing immune pathway”, “reporter construct,” for “reporter construct”, “empty vector control;” for “empty vector;”, “encoding LCK(1-266); and” for “encoding ZAP70dn(1-278);”, “encoding LCK(1-266)-ER(T12).” for “encoding ZAP70dn(1-278)-ER(T2); and (d) an expression construct encoding ZAP70dn(1-278)-ER(T12).”
Transfected cells were treated in the absence or presence of 1:80 dilution of Immunocult CD3/CD28 tetrameric antibody mixture (StemCell Technologies, Canada), which stimulated T-cell activity. Stimulated cells were then further treated with RPMI 1640 media plus 4.8% FBS stripped with charcoal dextran (ThermoFisher Scientific), either without Z-endoxifen or with 100 nM Z-endoxifen (Axon-Medchem). Luciferase activity (luminescence) was measured and reported as percent induction of NFAT-Luciferase.

[3] = system: NFAT-Luciferase reporter; assay: NFAT-Luciferase reporter assay, endoxifen dose response (Example 4); conditions: Jurkat E6.1 cells, anti-TCR antibody clone 305, endoxifen 0.05-1000 nM, 6 hours
Source text: To examine whether the concentration of endoxifen affected the level of inhibition of T cell activity by an endoxifen-responsive dominant negative Zap-70 polypeptide, Jurkat E6.1 cells (purchased from ATCC (Manassas, Va.)) were transiently transfected with an NFAT-Luciferase reporter construct and a test construct of (1) a vector encoding a dominant negative Zap70 moiety, as described in Example 2 (“Zap70dnm”), or (2) a vector encoding an endoxifen-responsive dominant negative Zap70 polypeptide, including an ER(T2) domain operatively linked to a dominant negative Zap70 moiety, as described in Example 1 (“Zap70dnm-ER(T2)”). The transient transfections were performed using LTX and PLUS transfection reagent (ThermoFisher Scientific) according to manufacturer's protocols.
Transfected cells were treated with an anti-TCR antibody, clone 305, which stimulated T cell activity. […]
After 6 hours, luciferase activity was assayed with Bright-Glo substrate according to manufacturer's protocols (Promega). Luminescence was detected on the Varioskan Lux (ThermoFisher Scientific) plate reader at a 1 second interval. The luminescence was measured and reported in relative light units (RLU). […]

[4] = system: NFAT-Luciferase reporter; assay: NFAT-Luciferase reporter assay in transiently transfected Jurkat E6.1 cells (Example 3)
Source text: One outcome of T cell activation is the expression of Nuclear Factor of Activated T cells (NFAT) transcription factors. Accordingly, a construct containing a reporter gene, such as firefly luciferase (Luc), under the control of an NFAT response element can be used to assess T cell activity. Such a construct can either be transiently transfected into cells (e.g., Jurkat cells, which are an immortalized line of human T cells) or stably integrated into a cell line (e.g., a derivative Jurkat cell line). These reporter genes can be used to measure activation, or inhibition, of T cell activation pathways.
To examine whether an endoxifen-responsive dominant negative Zap-70 polypeptide could inhibit T cell activity resulting in NFAT-luciferase expression, Jurkat E6.1 cells (purchased from ATCC (Manassas, Va.)) were transiently transfected with an NFAT-Luciferase reporter construct and a test construct of (1) a control vector (“vector”), (2) a vector encoding a dominant negative Zap70 moiety, as described in Example 2 (“Zap70dnm”), or (3) a vector encoding an endoxifen-responsive dominant negative Zap70 polypeptide, including an ER(T2) domain operatively linked to a dominant negative Zap70 moiety, as described in Example 1 (“Zap70dnm-ER(T2)”). The transient transfections were performed using LTX and PLUS transfection reagent (ThermoFisher Scientific) according to manufacturer's protocols.
Transfected cells were treated in the absence or presence of 1:30 Immunocult™ CD3/CD28/CD2 tetrameric antibody mixture (StemCell Technologies, Canada) (“α-TCR”), which stimulates T cell activity. […]
After 19 hours, luciferase activity was assayed with Bright-Glo substrate according to manufacturer's protocols (Promega). Luminescence was detected on the Varioskan Lux (ThermoFisher Scientific) plate reader at a 1 second interval. The luminescence was measured and reported in relative light units (RLU). […]

B1: ZAP70dn(1-278): dominant negative signaling moiety, ZAP70 amino acids 1-278, lacks a functional kinase domain, SEQ ID NO: 2 (protein)
chain: MPDPAAHLPFFYGSISRAEAEEHLKLAGMADGLFLLRQCLRSLGGYVLSLVHDVRFHHFPIERQLNGTYAIAGGKAHCGPAELCEFYSRDPDGLPCNLRKPCNRPSGLEPQPGVFDCLRDAMVRDYVRQTWKLEGEALEQAIISQAPQVEKLIATTAHERMPWYHSSLTREEAERKLYSGAQTDGKFLLRPRKEQGTYALSLIYGKTVYHYLISQDKAGKYCIPEGTKFDTLWQLVEYLKLKADGLIYCLKEACPNSSASNASGAAAPTLPAHPSTLT
With B1 the “luciferase reporter expression (RLU)” value [1] was “substantially reduced expression of luciferase reporter”.

B2: LCK(1-266): dominant negative LCK signaling moiety, SEQ ID NO: 17 (protein)
chain: MGCGCSSHPEDDWMENIDVCENCHYPIVPLDGKGTLLIRNGSEVRDPLVTYEGSNPPASPLQDNLVIALHSYEPSHDGDLGFEKGEQLRILEQSGEWWKAQSLTTGQEGFIPFNFVAKANSLEPEPWFFKNLSRKDAERQLLAPGNTHGSFLIRESESTAGSFSLSVRDFDQNQGEVVKHYKIRNLDNGGFYISPRITFPGLHELVRHYTNASDGLCTRLSRPCQTQKPQKPWWEDEWEVPRETLKLVERLGAGQFGEVWMGYYNG
For B2, the “luciferase reporter expression (percent induction of NFAT-Luciferase)” value [2] was “substantially reduced expression of luciferase reporter”.

B3: Zap70dnm: polypeptide including a nuclear export signal and a dominant negative Zap-70 moiety, SEQ ID NO: 10 (protein)
chain: MNELALKLAGLDINKTMPDPAAHLPFFYGSISRAEAEEHLKLAGMADGLFLLRQCLRSLGGYVLSLVHDVRFHHFPIERQLNGTYAIAGGKAHCGPAELCEFYSRDPDGLPCNLRKPCNRPSGLEPQPGVFDCLRDAMVRDYVRQTWKLEGEALEQAIISQAPQVEKLIATTAHERMPWYHSSLTREEAERKLYSGAQTDGKFLLRPRKEQGTYALSLIYGKTVYHYLISQDKAGKYCIPEGTKFDTLWQLVEYLKLKADGLIYCLKEACPNSSASNASGAAAPTLPAHPSTLT
B3 was tested, and the “luciferase expression from the NFAT-luciferase construct” value (from here on “luciferase expression”) [3] was “low”, the “luciferase expression” value ([4]; vehicle (not treated with α-TCR or endoxifen)) was “no luciferase expression was detected” and the “luciferase expression” value ([4]; α-TCR plus 100 nM endoxifen, 19 hours) was “low and nearly equivalent to the luciferase expression observed from sample 5”. The “luciferase expression” value ([4]; α-TCR, no endoxifen, 19 hours) was “low”.
